Experimental data published in US7211395 (dated 2007).
Bridges are numbered along the chain shown (N, C = ends). [ ]: non-standard residue; d: D form. Ahx = NCCCCCC(=O)O

Experiments:
[1] = target: T1, human serum albumin (HSA) (human, UniProt P02768); test: FP
[2] = target: T1, human serum albumin (HSA); test: FP, pH 6.2, 0.14 M NaCl
[3] = target: T1, human serum albumin (HSA); test: FP, PBS
[4] = target: T1, human serum albumin (HSA); test: FP, pH 7.4, 0.14 M NaCl, 0.1% caprylate
[5] = target: T1, human serum albumin (HSA); test: FP, pH 9.1, 0.14 M NaCl
[6] = target: T1, human serum albumin (HSA); test: FP, pH 7.4, 0.14 M NaCl
[7] = target: T1, human serum albumin (HSA); test: FP, PBS; remark: listed apart in the source

| Binder | Kd [2] [µM] | Kd [3] [µM] | other results |
| --- | --- | --- | --- |
| Ac-AEGTGDFWFCDRIAWYPQHLCGGGK-NH2 (disulfide 10-21 (inferred)) [DX-236 truncation SEQ 42] | – | – | Kd [1]: 8.9 µM |
| Ac-AEGTGSFKICDQWFCLMPAPE[Ahx]K(fluorescein)-NH2 (disulfide 10-15 (inferred)) [DX-295] | > 100 | – | – |
| Ac-GDRNMCKFSWIRSPAFCARADPGGGK-NH2 (disulfide 6-17 (inferred); also: fluorescein label, attachment site not given here) [DX-321 (GD...GGGK form)] | – | > 10 | – |
| Ac-AEGTGDDWDCVTRWANRDQQCWALDPE[Ahx]K(fluorescein)-NH2 (disulfide 10-21 (inferred)) [DX-315] | > 200 | – | Kd [4]: > 100 µM |
| Ac-GDNDGCTDTNWSWMFDCPPLDPGGGK-NH2 (disulfide 6-17 (inferred); also: fluorescein label, position not given here) [DX-1165] | – | > 10 | – |
| Ac-AGWTTCHIYDWFCSSSGTGGGK-NH2 (disulfide 6-13 (inferred); also: fluorescein label, position not given here) [DX-1175] | – | 30 | – |
| Ac-AGYQFCTWDPIFCGWHGTGGGK-NH2 (disulfide 6-13 (inferred); also: fluorescein label, position not given here) [DX-1179] | – | 185 | – |
| Ac-GDLRDCQTTWPFTMMQCPNNDPGGGK-NH2 (disulfide 6-17 (inferred); also: fluorescein label, position not given here) [DX-1002] | – | 4 | – |
| Ac-GDSPYCKIALFQHFEVCAADDPGGGK-NH2 (disulfide 6-17 (inferred); also: fluorescein label, position not given here) [DX-1167] | – | > 10 | – |
| Ac-GSRSFCMDWPNHRDCDYSAPGGGK-NH2 (disulfide 6-15 (inferred); also: fluorescein label, position not given here) [DX-1171] | – | 165 | – |
| Ac-AGKWYCAWDPLVCEIFGTGGGK-NH2 (disulfide 6-13 (inferred); also: fluorescein label, position not given here) [DX-1173] | – | > 10 | – |
| Ac-GSLWDCWLYDCEGNAPGGGK-NH2 (disulfide 6-11 (inferred); also: fluorescein label, position not given here) [DX-1093] | – | > 10 | – |
| Ac-FWFCDRIAWYPQHLCEFLDPEGGGK-NH2 (disulfide 4-15 (inferred)) [DX-236 truncation SEQ 39] | – | – | Kd [1]: 8.9 µM |
| Ac-GDRWFCDSAYWQEIPACARDDPGGGK-NH2 (disulfide 6-17 (inferred); also: fluorescein label, position not given here) [DX-1085] | – | – | binding result [7]: no binding |
| Ac-GDSDFCDTPYWRDLWQCNSPDPGGGK-NH2 (disulfide 6-17 (inferred); also: fluorescein label, position not given here) [DX-1087] | – | – | binding result [7]: no binding |
| Ac-GDPRSCVEKYYWDVLICGFFDPGGGK-NH2 (disulfide 6-17 (inferred); also: fluorescein label, position not given here) [DX-1169] | – | – | binding result [7]: no binding |

Continued, in another order:

| Kd [2] [µM] | Kd [3] [µM] | Binder | other results |
| --- | --- | --- | --- |
| 80 | – | Ac-AEGTGDDWDCVTRWANRDQQCWGPDPE[Ahx]K(fluorescein)-NH2 (disulfide 10-21 (inferred)) [DX-313] | Kd [5]: 90 µM; Kd [6]: > 200 µM |
| 0.5 | – | Ac-AEGTGSVAWCTIFLCLDVAPEGGGK(fluorescein)-NH2 (disulfide 10-15 (inferred)) [DX-232] | – |
| > 200 | – | Ac-AEGTGSWKVCDHFFCLSPAPE[Ahx]K(fluorescein)-NH2 (disulfide 10-15 (inferred)) [DX-297] | Kd [4]: > 200 µM; Kd [6]: > 200 µM |
| > 200 | – | Ac-AEGTGDDWDCVTDWANRHQHCWALDPE[Ahx]K(fluorescein)-NH2 (disulfide 10-21 (inferred)) [DX-317] | – |
| > 100 | – | Ac-AEGTGSHVGCNNALCMQYAPE[Ahx]K(fluorescein)-NH2 (disulfide 10-15 (inferred)) [DX-296] | Kd [4]: > 200 µM |
| – | > 10 | Ac-GDLRSCFTYYPFTTFSCSPADPGGGK-NH2 (disulfide 6-17 (inferred); also: fluorescein label, position not given here) [DX-1091] | – |
| – | > 10 | Ac-GDFSLCWIVDEDGTKWCLPDPGGGK-NH2 (disulfide 6-17 (inferred); also: fluorescein label, attachment site not given here) [DX-997] | – |
| – | 42 | Ac-GDDSMCITWPFKRPWPCANDPGGGK-NH2 (disulfide 6-17 (inferred); also: fluorescein label, position not given here) [DX-1163] | – |
| > 200 | – | Ac-AEGTGDDWQCVKDWANRRRGCMADDPE[Ahx]K(fluorescein)-NH2 (disulfide 10-21 (inferred)) [DX-319] | Kd [6]: > 200 µM |
| – | 153 | Ac-AGLEYCFYQWWGCPHAGTGGGK-NH2 (disulfide 6-13 (inferred); also: fluorescein label, position not given here) [DX-1177] | – |
| > 200 | – | Ac-AEGTGSNHGCWHFSCIWDAPE[Ahx]K(fluorescein)-NH2 (disulfide 10-15 (inferred)) [DX-298] | Kd [5]: > 200 µM |
| – | > 10 | Ac-GDSFCVTYIGTWETVCKRSDPGGGK-NH2 (disulfide 5-16 (inferred); also: fluorescein label, position not given here) [DX-1089] | – |
